Measurements taken from the supplement of paper PMC11865577.

Experiments:
Assay in all cases: pull-down binding Z-score (relative to library population); higher = stronger binding
Details in all cases: RNA library: Library-2
[1] = tested on: TO-3-N3 (biotin conjugate)
How it was run: (§1)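 An RNA library (1 μg) carrying a Cy5 or Cy3 end label was heat-folded in phosphate/NaCl/KCl buffer, then incubated for 60 min at 25 °C with streptavidin beads loaded with 100 pmol of biotin-conjugated small molecule. The beads were washed three times, and bound RNA was released in hot SDS and hybridised to a DNA barcode microarray for 20 h at 55.5 °C. Each binding score was derived by subtracting the signal from beads without compound, averaging the barcoded replicate probes after removing the highest and lowest, and expressing the result as a Z-score relative to the library mean and standard deviation.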

[2] = tested on: TO-N3-2 (biotin conjugate)
How it was run: as §1

[3] = tested on: TO-3-N3-2 (biotin conjugate)
How it was run: as §1

[4] = tested on: TO-N3 (biotin conjugate)
How it was run: as §1

Sequence	pull-down binding Z-score [1]	pull-down binding Z-score [2]	pull-down binding Z-score [3]	pull-down binding Z-score [4]
GGUACAUUUACUUGUGCU [SHAPE_invivo_SARS-CoV-2_Motif_118]	0.677	-0.222	-0.344	0.678
CCACUUGGCUAUGUAACACAUGGCUUAAAUUUGG [DMSMaPseq_invitro_SARS-CoV-2_Motif_85]	0.386	-0.575	-0.0708	0.127
CCAUUUCAUCUUUUAAAUGG	-0.598	-0.946	-0.38	-0.985
CAACGGUACUAUUACCGUUG	-0.275	-1.59	-0.426	-0.553
CAGAGACUUGAAGAUGUCUUUG [IAV_invivo_M1_M2_7_Motif_2+IAV_invivo_M1_M2_7_Motif_2]	-0.637	-0.242	-0.362	-0.897
CCUUUAGUACCUUUCUGGAUAACAAUUGCUUAUAUCAUUUGUAUUUCCACAAAGCAUUUCUAUUGG	-0.884	-0.78	-0.843	-1.06
CAGUUUACUCACACCUUUUGCUCGUUGCUGCUG	-0.164	0.0199	-0.285	-0.0216
CCCAAGUCAUGAAGGAGAGGG [IAV_invivo_PA_3_Motif_13+IAV_invivo_PA_3_Motif_13]	0.689	0.652	0.497	0.816
GGUACGUUAAUAGUUAAUAGCGUACUUCUUUUUCUUGCUUUCGUGGUAUUCUUGCUAGUUACACUAGCCAUCCUUACUGCGCUUCGAUUGUGUGCGUACU	0.654	-0.294	-0.0614	0.41
UACUGGUUCUAUACCUUGUA [SARS-CoV-2-Conserved-Structured-4_Interval-7011-7130_Motif_3]	0.217	-0.722	-0.095	-0.0242
CAGACUUUGUGAAUGAGUUUUACGCAUAUUUGCGUAAACAUUUCUCAAUGAUGAUACUCUCUG	-0.682	-0.783	-0.222	-0.747
GAUUCAGAUCUUAAUGACUUUGUC [SHAPE_invivo_SARS-CoV-2_Motif_393]	-0.246	-0.794	-0.439	-0.539
GGAGUAAGUCUGAUACUUACCUG [U1snRNP5ss-1]	-0.0269	0.773	-0.152	0.599
GCUGUUUAAUAGGGGCUGAACAUGUCAACAACUCAUAUGAGUGUGACAUACCCAUUGGUGCAGGUAUAUGCGCUAGUUAUCAGACUCAGACUAAUUCUCCUCGGC	-0.351	-0.00417	0.183	0.298
CACCACUUAACCGAAAUUAUGUCUUUACUGGUUAUCGUGUAACUAAAAACAGUAAAGUACAAAUAGGAGAGUACACCUUUGAAAAAGGUGACUAUGGUG	-0.803	-0.309	-0.419	-0.623
GGUGUGGAUGGCAUGCC [IAV_invivo_NP_5_Motif_17+IAV_invivo_NP_5_Motif_17]	-0.0853	0.0568	-0.0718	-0.121
CCCAUUGGAGAGUCCCCCAAAGGAGUGGAGGAAAGUUCCAUUGGG [IAV_invivo_PA_3_Motif_26+IAV_invivo_PA_3_Motif_26]	-0.0565	0.298	-0.0971	-0.0467
GGGCUGUGACCACUGAAGUGGCAUUUGGCCU [IAV_invivo_M1_M2_7_Motif_9+IAV_invivo_M1_M2_7_Motif_9]	-0.255	0.272	-0.255	-0.176
CCAGUAUCUGAAUUACUUACACCACUGG [SHAPE_invivo_SARS-CoV-2_Motif_58]	0.91	-0.0924	0.119	0.688
CGUUCGGAUGCUCGAACUGCACCUCAUGGUCAUGUUAUGGUUGAGCUGGUAGCAGAACUCGAAGGCAUUCAGUACG [SHAPE_invitro_SARS-CoV-2_Motif_11]	-0.289	1.57	-0.454	0.0804
GCCUUGAAGCCCCUUUUCUCUAUCUUUAUGCUUUAGUCUACUUCUUGCAGAGUAUAAACUUUGUAAGAAUAAUAAUGAGGC	0.275	0.166	0.362	0.232
UCCUGUUUACCUUUUACAAUUAAUUGCCAGGA [SHAPE_invivo_SARS-CoV-2_Motif_533]	-0.84	0.272	-0.351	-1.01
GUGCGUAUAAAGAUUGUACAAAUGUUAAGUGACACACUUAAAAAUCUCUCUGACAGAGUCGUAUUUGUCUUAUGGGCAC [DMSMaPseq_invitro_SARS-CoV-2_Multi_54_ComplexLevel_1]	-1.04	-0.644	-0.29	-0.833
ACCAAUGUGCUAUGAGGCCCAAUUUCACUAUUAAGGGUUCAUUCCUUAAUGGUUCAUGUGGUAGUGUUGGU [SHAPE_invivo_SARS-CoV-2_Multi_27_ComplexLevel_1]	-0.261	-0.569	-0.186	-0.295
UGGUACUAUCUAUACAGAACUGGAACCA [SHAPE_invitro_SARS-CoV-2_Motif_233]	-0.352	-0.456	-0.345	-0.445
UCUUGCCGAAUACCAUAAUGAAUCUGGCUUGA [SHAPE_invivo_SARS-CoV-2_Motif_27]	-0.617	0.0939	-0.354	-0.631
CAGGUUUGUGAGAUACUUACCUG [U1snRNP5ss-14]	-0.473	-0.792	-0.404	-0.661
UGCCAUUUGUCAUGAUGGAAAAGCACACUUUCCUCGUGAAGGUGUCUUUGUUUCAAAUGGCA [SHAPE_invivo_SARS-CoV-2_Motif_465]	-0.108	-0.463	-0.218	-0.0789
CAACUGAAAUCUAUCAGGCCGGUAGCACACCUUGUAAUGGUGUUGAAGGUUUUAAUUG [SHAPE_invivo_SARS-CoV-2_Motif_433]	-0.552	0.0571	-0.292	-0.566
CCUGCACCACGCACAUUGCUAACUAAGG [SHAPE_invitro_SARS-CoV-2_Motif_318]	-0.429	0.0122	-0.173	-0.204
